Consider 16 molecules from US20170304437A1 (ALLIGATOR BIOSCIENCE, published 2017).

In assay [1] the target is T1, CD40-Fc (Ancell # 504-820) (human, UniProt P25942 21-193).
T1 construct: Bought reagent; also called human CD40; not shown: Fc part of the bought fusion
Description: binding ELISA, CD40-Fc coated, sample titrated, anti-human IgG Fc-HRP, chemiluminescence. Here is the method: (§1) In short, 96-well flat bottom plate high binding plates (Greiner #655074) were coated with CD40-Fc (Ancell # 504-820) by incubating overnight at 4° C. The plates were washed (Wash buffer: PBS+0.05% Tween 20 (PBST) Medicago #09-9410-100) and then blocked in PBST+3% BSA (Merck, #1.12018.0100). The plates were washed again and samples or control (serial dilutions 1/2, starting at 0.2 ug/ml) were added to the wells.
(§2) The samples were incubated for 1 h at room temperature and then washed. Detection antibody, goat-anti-human IgG Fcγ-HRP (Jackson, #109-035-098) was added and the plates were subsequently developed using SuperSignal Pico Chemiluminescent substrate (Thermo #37069) and detected with Envision reader (Perkin Elmer). In FIG. 6A the binding of bispecific molecules at different concentrations to CD40 coated onto an ELISA plate is shown. In FIG. 6B, the binding of bispecific molecules at one fixed concentration (100 ng/ml) to CD40 coated onto an ELISA plate is shown. The bispecific molecules bind specifically to CD40.

The target in assay [2] is T1, CD40-Fc (Ancell # 504-820). Description: binding ELISA, CD40-Fc coated, one fixed concentration, anti-human IgG Fc-HRP. Here is the method:
as §1, §2

Assay [3] deals with T2, human CTLA4-Fc (Fitzgerald #30R-CD152) (human, UniProt P16410 38-152).
T2 construct: Bought reagent; also called biotinylated-CTLA4; human CTLA-4 (Fitzgerald); not shown: Fc part of the bought fusion
The experiment in a line: binding ELISA, CTLA4-Fc coated, sample titrated, anti-human IgG Fc-HRP, chemiluminescence, data normalised to % [both panels]. Here is the method: (§3) The plates were washed (Wash buffer: PBS+0.05% Tween 20 (PBST) Medicago #09-9410-100) and then blocked in PBST+3% BSA (Merck, #1.12018.0100). The plates were washed again and sample or controls (serially diluted 1/3 from […]) were added to the wells. The samples were incubated for 1 h at room temperature and then washed. Detection antibody, goat-anti-human IgG Fγy-HRP (Jackson, #109-035-098) was added and the plates were subsequently developed using SuperSignal Pico Chemiluminescent substrate (Thermo #37069) and detected with an Envision reader (Perkin Elmer).

The target of assay [4] is T3, CD28-Fc (provided by Simon Davis, Oxford University) (human, UniProt P10747 19-152, limits assumed).
T3 construct: Gift reagent; not shown: Fc part
Description: binding ELISA, coated CD28-Fc. Here is the method:
as §3

The target in assay [5] is T2, human CTLA4-Fc (Fitzgerald #30R-CD152). The experiment in a line: binding ELISA, CTLA4-Fc coated, sample titrated, anti-human IgG Fc-HRP, chemiluminescence, data normalised to % [upper panel]. Here is the method:
as §3

Assay [6] has the same target. Description: binding ELISA, CTLA4-Fc coated, sample titrated, anti-human IgG Fc-HRP, chemiluminescence, data normalised to % [lower panel]. Here is the method: as §3
Assay [7] deals with T1, CD40-Fc (Ancell # 504-820). The experiment in a line: binding ELISA, CD40-Fc coated, one fixed concentration (100 ng/ml), anti-human IgG Fc-HRP. The method, then: as §1, §2

T1 sequence (P25942 21-193 limits assumed): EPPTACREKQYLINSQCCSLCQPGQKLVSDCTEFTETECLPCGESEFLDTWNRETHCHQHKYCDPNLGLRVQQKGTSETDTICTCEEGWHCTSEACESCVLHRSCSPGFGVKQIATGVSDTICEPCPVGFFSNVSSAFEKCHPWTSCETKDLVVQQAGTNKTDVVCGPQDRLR
T2 sequence (P16410 38-152 limits assumed): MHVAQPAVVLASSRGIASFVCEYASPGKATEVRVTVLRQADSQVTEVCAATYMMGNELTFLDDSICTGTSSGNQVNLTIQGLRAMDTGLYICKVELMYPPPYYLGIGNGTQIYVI

B1: Bispecific polypeptide 956/530 (bispecific antibody, human IgG1, kappa)
light: QSVLTQPPSASGTPGQRVTISCSGSSSNIGSNTVNWYQQLPGTAPKLLIYRNNQRPSGVPDRFSGSKSGTSASLAISGLRSEDEADYYCAAWDDSLSGWRFGGGTKLTVLGGTVAAPSVFIFPPSDEQLKSGTASVVCLLNNFYPREAKVQWKVDNALQSGNSQESVTEQDSKDSTYSLSSTLTLSKADYEKHKVYACEVTHQGLSSPVTKSFNRGECSGGGGSGGGGSLKIQAYFNETADLPCQFANSQNQSLSELIVFWQDQENLVLNEVYLGKERFDAVDSKYMGRTSFDSDSWTLRLHNLQIKDKGIYQCIIHHKKPSGMVKIHQMDSELSVLA
heavy: not shown
As for B1, the binding result in assay [1] is on record as “binds”.

B2: isolated polypeptide of amino acid sequence SEQ ID NO: 8 (soluble CTLA-4 binding domain reference 904) (ligand)
chain: LKIQAYFNETADLPCQFANSQNQSLSELIVFWQDQENLVLNEVYLGKERFDAVDSKYMGRTSFDSDSWTLRLHNLQIKDKGIYQCIIHHKKPSGMVKIHQMDSELSVLA
notes: Control in the CD40 ELISA
As to B2, the binding result in assay [2] was “no binding (tested: 100 ng/ml (not on the sheet))”.

B3: wild type human CD86 soluble extracellular domain (control in Examples 2 and 4) (ligand)
chain: APLKIQAYFNETADLPCQFANSQNQSLSELVVFWQDQENLVLNEVYLGKEKFDSVHSKYMGRTSFDSDSWTLRLHNLQIKDKGLYQCIIHHKKPTGMIRIHQMNSELSVLA
notes: probably the same Fc fusion as the clones; also called wild-type protein CD86; wild type CD86; not shown: the clones it is compared with were gamma2/gamma4 Fc fusions and detection was by anti
Turning to B3, in assay [3], the “EC50 (read off the curve)” value is approximately 0.5 µg/mL.

B4: CD86 mutant clone 1038, gamma2/gamma4 fusion (Fc fusion)
chain: APLKIQAYFNETADLPCQFANSQNLSLSELVVFWQDQENLVLNEVYLGKEKFDSVDSKYMGRTSFDSDSWTLRLHNLQIKDKGIYQCIIHHKKPTGMVKIHEMNSELSVLA
notes: Expressed as gamma2/gamma4 fusion, protein A purified; not shown: gamma2/gamma4 Fc
With B4, the binding result in assay [4] is “no binding”. Further, the “EC50 (read off the curve)” value in assay [5] is approximately 0.1 µg/mL.

B5: CD86 H79A mutant (Peach et al) control clone (ligand)
chain: APLKIQAYFNETADLPCQFANSQNQSLSELVVFWQDQENLVLNEVYLGKEKFDSVASKYMGRTSFDSDSWTLRLHNLQIKDKGLYQCIIHHKKPTGMIRIHQMNSELSVLA
notes: also called Prior Art; not shown: probably the same gamma2/gamma4 Fc fusion
For B5, in assay [3], the “EC50 (read off the curve)” value was approximately 0.8 µg/mL.

B6: CD86 mutant clone 1044, gamma2/gamma4 fusion (Fc fusion)
chain: APLKIQAYFNETADLPCQFANSQNLTLSELVVFWQDQENLVLNEVYLGKEKFDSVSSKYMGRTSFDSDSWTLRLHNLQIKDKGIYQCIIHHKKPTGMIKIHEMSSELSVLA
notes: as for B4
With B6, in assay [4], the binding result is “no binding”. Also, the 50% effective concentration (EC50 (read off the curve)) in assay [6] is approximately 0.03 µg/mL.

B7: CD86 mutant clone 1047, gamma2/gamma4 fusion (Fc fusion)
chain: APLKIQAYFNETADLPCQFANSQNLSLSELVVFWQDQENLVLNEVYLGKEKFDSVDSKYMGRTSFDSDSWTLRLHNLQIKDKGIYQCIIHHKKPTGLVKIHEMNSELSVLA
notes: as for B4
As to B7, in assay [4], the binding result is “no binding”.

B8: CD86 mutant clone 1039, gamma2/gamma4 fusion (Fc fusion)
chain: APLKIQAYFNETADLPCQFANSQNLSLSELVVFWQDQENLVLNEVYLGKEKFDSVSSKYMGRTSFDSDSWTLRLHNLQIKDKGIYQCIIHHKKPSGMVKIHQMDSELSVLA
notes: as for B4
In the case of B8, the binding result in assay [4] is listed as “no binding”. Besides, the “EC50 (read off the curve)” value in assay [5] is approximately 0.04 µg/mL.

B9: CD86 mutant clone 1043, gamma2/gamma4 fusion (Fc fusion)
chain: APLKIQAYFNETADLPCQFANSQNLSLSELVVFWQDQENLVLNEVYLGKEKFDSVDSKYMGRTSFDSDSWTLRLHNLQIKDKGIYQCIIHHKKPTGMIKIHEMNSELSVLA
notes: as for B4
Turning to B9, the binding result in assay [4] was “no binding”. Besides, the “EC50 (read off the curve)” value in assay [6] was approximately 0.04 µg/mL.

B10: CD86 mutant clone 1046, gamma2/gamma4 fusion (Fc fusion)
chain: APLKIQAYFNETADLPCQFANSQNQSLSELVVFWQDQENLVLNEVYLGKEKFDSVDSKYMGRTSFDSDSWTLRLHNLQIEDKGIYQCIIHHKKPSGMVKIHQMDSELSVLA
notes: as for B4
Turning to B10, the binding result in assay [4] is recorded as “no binding”. In assay [6], the “EC50 (read off the curve)” value is approximately 0.02 µg/mL.

B11: CD86 mutant clone 1041, gamma2/gamma4 fusion (Fc fusion)
chain: APLKIQAYLNETADLPCQFANSQNLSLSELVVFWQDQENLVLNEVYLGKEKFDSVDSKYMGRTSFDSDSWTLRLHNLQIKDKGIYQCIIHHKKPTGLVKIHEMNSELSVLA
notes: as for B4
In the case of B11, the binding result in assay [4] was “no binding”. Moreover, the “EC50 (read off the curve)” value in assay [5] was approximately 0.09 µg/mL.

B12: CD86 mutant clone 1045, gamma2/gamma4 fusion (Fc fusion)
chain: APLKIQAYFNETADLPCQFANSQNLTLSELVVFWQDQENLVLNEVYLGKEKFDSVDSKYMGRTSFDSDSWTLRLHNLQIKDKGLYQCIIHHKKPTGLVKIHEMNSELSVLA
notes: as for B4
B12: the binding result in assay [4] is recorded as “no binding”. Besides, the “EC50 (read off the curve)” value in assay [6] was approximately 0.05 µg/mL.

B13: Bispecific polypeptide 959/530 (bispecific antibody, human IgG1, kappa)
light: LKIQAYFNETADLPCQFANSQNQSLSELIVFWQDQENLVLNEVYLGKERFDAVDSKYMGRTSFDSDSWTLRLHNLQIKDKGIYQCIIHHKKPSGMVKIHQMDSELSVLAKRTVAQSVLTQPPSASGTPGQRVTISCSGSSSNIGSNTVNWYQQLPGTAPKLLIYRNNQRPSGVPDRFSGSKSGTSASLAISGLRSEDEADYYCAAWDDSLSGWRFGGGTKLTVLGGTVAAPSVFIFPPSDEQLKSGTASVVCLLNNFYPREAKVQWKVDNALQSGNSQESVTEQDSKDSTYSLSSTLTLSKADYEKHKVYACEVTHQGLSSPVTKSFNRGEC
heavy: not shown
As to B13, the binding result in assay [7] is reported as “binds”.

B14: Bispecific polypeptide 960/530 (bispecific antibody, human IgG1, kappa)
light: LKIQAYFNETADLPCQFANSQNQSLSELIVFWQDQENLVLNEVYLGKERFDAVDSKYMGRTSFDSDSWTLRLHNLQIKDKGIYQCIIHHKKPSGMVKIHQMDSELSVLANFSQPQSVLTQPPSASGTPGQRVTISCSGSSSNIGSNTVNWYQQLPGTAPKLLIYRNNQRPSGVPDRFSGSKSGTSASLAISGLRSEDEADYYCAAWDDSLSGWRFGGGTKLTVLGGTVAAPSVFIFPPSDEQLKSGTASVVCLLNNFYPREAKVQWKVDNALQSGNSQESVTEQDSKDSTYSLSSTLTLSKADYEKHKVYACEVTHQGLSSPVTKSFNRGEC
heavy: not shown
Consider B14, for which the binding result in assay [7] is “binds”.

B15: Bispecific polypeptide 958/531 (bispecific antibody, human IgG1, kappa)
heavy: not shown
light: QSVLTQPPSASGTPGQRVTISCSGSSSNIGSNTVNWYQQLPGTAPKLLIYRNNQRPSGVPDRFSGSKSGTSASLAISGLRSEDEADYYCAAWDDSLSGWRFGGGTKLTVLGGTVAAPSVFIFPPSDEQLKSGTASVVCLLNNFYPREAKVQWKVDNALQSGNSQESVTEQDSKDSTYSLSSTLTLSKADYEKHKVYACEVTHQGLSSPVTKSFNRGEC
Turning to B15, the binding result in assay [7] is reported as “binds”.

B16: Bispecific polypeptide 957/530 (bispecific antibody, human IgG1, kappa)
light: QSVLTQPPSASGTPGQRVTISCSGSSSNIGSNTVNWYQQLPGTAPKLLIYRNNQRPSGVPDRFSGSKSGTSASLAISGLRSEDEADYYCAAWDDSLSGWRFGGGTKLTVLGGTVAAPSVFIFPPSDEQLKSGTASVVCLLNNFYPREAKVQWKVDNALQSGNSQESVTEQDSKDSTYSLSSTLTLSKADYEKHKVYACEVTHQGLSSPVTKSFNRGECSGGGGSGGGGSAPLKIQAYFNETADLPCQFANSQNQSLSELIVFWQDQENLVLNEVYLGKERFDAVDSKYMGRTSFDSDSWTLRLHNLQIKDKGIYQCIIHHKKPSGMVKIHQMDSELSVLA
heavy: not shown
As to B16, in assay [1], the “EC50 (read off the curve)” value is approximately 0.2 µg/mL.
